Data: patent US20220002432A1 (VIRTUOSO BINCO, published 2022)

T1: Rhesus-ICAM1 (rhesus, UniProt Q5NKV6 28-480, limits assumed)
T1 sequence (looked up): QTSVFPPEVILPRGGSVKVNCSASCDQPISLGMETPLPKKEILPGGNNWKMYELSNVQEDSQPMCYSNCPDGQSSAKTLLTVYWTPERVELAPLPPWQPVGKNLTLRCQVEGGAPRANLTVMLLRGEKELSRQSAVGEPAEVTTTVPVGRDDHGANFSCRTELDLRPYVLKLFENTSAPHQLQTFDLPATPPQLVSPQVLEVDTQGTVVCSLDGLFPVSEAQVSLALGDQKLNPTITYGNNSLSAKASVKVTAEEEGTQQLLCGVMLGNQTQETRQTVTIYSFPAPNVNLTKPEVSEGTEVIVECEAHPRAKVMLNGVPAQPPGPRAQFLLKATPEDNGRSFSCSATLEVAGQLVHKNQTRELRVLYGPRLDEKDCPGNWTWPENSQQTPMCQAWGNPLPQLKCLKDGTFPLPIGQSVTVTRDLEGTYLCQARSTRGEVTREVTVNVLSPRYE

B1: 25C3 (antibody, human IgG1, kappa, V domains shown)
VH: QEQLEESGGDLVKPGASLTLTCKASGFSFSSAYDMCWVRQAPGKGLEWVACLYTVSSDSIYYASWAKGRFTISRTSSTTVTLQMTSLTAADTATYFCARDGDYFALWGPGTLVTVSS
VL: DIVMTHTPASVEAAVGGTVTIKCQASQNIGGYLSWYQQKPGQRPKLLIYRASTLASGVPSRFKGSGSGTQFTLTISDLESADAATYYCQTYYYSGSSRYWAFGGGTEVVVKR
notes: Rabbit-human chimeric anti-CD38: rabbit VH and VL on human IgG1 and kappa constant regions
B2: 23D1 (antibody, human IgG1, kappa, V domains shown)
VH: QELVESGGGLFQPGGSLALTCKASGFSLSNIYVMCWVRQAPGKGLEWIACIGTGSGDTDYATWAKGRFTISKTSSTTVTLQMTSLTAADTATYFCARDPGAGTWNLWGPGTLVTVSS
VL: DIVMTQTPSSVEAAVGGTVTIKCQASQTIGSRLAWYQQKPGQPPKLLIYSASTLASGVSSRFKGSGSGTQFTLTISDLDSADAATYYCQSYYYTSTSYPNAFGGGTEVVVKR
notes: as for B1
B3: 27F6 (antibody, human IgG1, kappa, V domains shown)
VH: QSLEESGGGLVKPGASLTLTCKASGFSFSSGCDMCWVRQAPGKGLEWISCIYTGSGSTYYANWAKGRFTISRTSSTTVTLQMTSLTAADTATYFCAGDSDYLGLWGPGTLVTVSS
VL: DIVMTQTPSSVEAAVGGTVTIKCQASQNIGNYLAWYQQKPGQPPKVLIYRASTLASGVPSRFKGSGSGTHFTLTISDLESADAATYYCQSYYYTTDDNYRSWAFGGGTEVVVKR
notes: as for B1
B4: 17E9 (antibody, human IgG1, kappa, V domains shown)
VH: QSVEESGGRLVTPGTPLTLTCTASGFSLSRYYVTWVRQAPGKGLEWIGIIYISGTTYYATWAKGRFTISKSATTVDLRIASPTTEDTATYFCAAAWPVGTYVLPLWGPGTLVTVSS
VL: AAVLTQTPSPVSAAVGGTVTIKCQSSQSVVNANNLSWYQQKPGQPPKLLIYLASTLASGVPSRFSGSGSGTQFTLTISSVQSDDAATYYCLGVYDDDGDNAFGGGTEVVVKR
notes: as for B1
B5: 25F12 (antibody, human IgG1, kappa, V domains shown)
VH: RSLEESGGRLVTPGTPLTLTCTTSGFSLSSYDMSWVRQAPGKGLEWIGYITYGGNIYYATWAKGRFTTSKTSTTVDLKITSPTTEDTATYFCARTLYTGGRYYFSLWGPGTLVTVSS
VL: AQVLTQTPSSVSAVVGGTVTINCQSSQSIANSNEVAWYQQKLGQPPKLLIYDASTLASGVPSRFSGSGSGTQFTLIISGVQSDDAATYYCQGTVYDNVWYAAFGGGTEVVVKR
notes: as for B1
B6: 17F7 (antibody, human IgG1, kappa, V domains shown)
VH: QSVEESGGRLVTPGTPLTLTCTASGFSLSSYYMSWVRQAPGKGLEWIGFISKTAITYYASWARGRFTISKTSTAVDLKITSPTTEDTATYFCARVDAYSAGDLWGPGTLVTVSS
VL: AQVLTQTPSSVSAAVGGTVTINCQASQSVYSDNRLSWFQQKSGQPPKLLIYSTSSLASGVPSRFSGSGSGTQFTLTISGVQSDDAASYYCQGEFICTSADCFVFGGGTEVVVKR
notes: as for B1
B7: 25E4 (antibody, human IgG1, kappa, V domains shown)
VH: QSLEESGGRLVTPGTPLTLTCTVSGIDLSIYTMAWVRQAPGKGLEYIGIISGYGTTYYATWAKGRFIVSKTSTTVDLKITSPTTEDTATYFCVRTTVQSTDLWGPGTLVTVSS
VL: DIVMTQTPASVEAAVGGTVTINCQASQNIYSNLAWYQQKPGQRPKLLIYKASTLASGVSSRFKGSGSGTEFTLTISDLASADAATYYCQSYYGATSSSFGYGFGGGTEVVVKR
notes: as for B1
B8: 18E4 (antibody, human IgG1, kappa, V domains shown)
VH: QSLEESGGDLVKPGASLTLTCTASGFSFNNYWICWIRQAPGKGLEWVACIYSPSGDIKYYANWAKGRFTVSKTSSTTVTLQMTSLTGADTATYFCARELSGSSYEGYFESWGPGTLVTVSS
VL: AQVLTQTPSSVSAAVGGTVTINCQCSQSVYGHNWLAWYQHKPGQPPKLLMYRASNLASGVPSRFKGSGSGSQFTLTIGEVQSDDAATYYCQGYYNGGSYAFGGGTEVVVRR
notes: as for B1
B9: Anti-ICAM1 G12 (antibody, human IgG1, lambda, V domains shown)
VH: QVQLQESGGGLVQPGGSLRLSCAASGFTFSSYAMSWVRQAPGKGLEWVSAISGSGGSTYYADSVKGRFTISRDNSKNTLYLQMSSLRAEDTAFYYCANSAYTGGWYDYWGHGTLVTVSS
VL: ASELTQDPAVSVALGQTVKITCQGDSLRTYYASWYQQRPGQAPVLVIYGENSRPSGIPDRFSGSSSGNTASLTITGAQAEDEADYYCNSRDSSGNHLRVFGGGTKLTVLG
notes: Human IgG1 with a lambda light chain; also called anti-ICAM1 clone G12

target: T2, CD38 on the surface of Daudi cells (human, UniProt P28907 1-300); test: flow cytometry, Daudi cells;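 also: purified antibodies incubated with Daudi cells for 1 h at 4 °C, bound antibody detected by fluorescent secondary antibody and read by flow cytometry as MFI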
T2 construct: whole, on cells
Protocol: (§1) Harvested cells were centrifuged at 2000 rpm for 5 min and resuspended with 10-15 ml ice-cold culture medium. Cells were counted and then 3×10⁶ cells were resuspended per mL of blocking buffer (PBS plus 2% FBS). 100 μl of the cell suspension was dispensed into each well of a 96-well plate and incubated at room temperature for 10-20 min. […] While incubating, purified antibodies were diluted to the desired dilution with blocking buffer. After a 10-20 minutes incubation, cells were centrifuged for 5 min at 2000 rmp in a refrigerated centrifuge. Blocking buffer was aspirated, and cells were resuspended in 100 μl/well diluted antibodies and incubated for 1 hour at 4° C. The cells were then washed 3 times with PBS plus 2% FBS. After the final wash, the cells were resuspended in 100 μl 1:500 diluted secondary antibody (Invitrogen, Cat #: A10631) and incubated for 1 hour at 4° C. in the dark. The cells were then washed 3 times with 200 μl PBS by centrifuging at 2000 rpm for 5 min. After the last wash, the cells were resuspended in 300 μl cold PBS and analyzed on a FACSVerse™ (BD Biosciences) flow cytometer.

EC50 [nM]	Max Binding MFI [MFI]	Binder
0.347	1180	B1
0.704	1000	B2
0.298	1200	B3
0.263	2260	B4
0.263	1030	B5
0.432	1530	B6
0.503	859	B7
0.9	1580	B8

target: T3, ICAM1 on the surface of DU145 cells (human, UniProt P05362 28-532); test: flow cytometry, DU145 cells;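 also: purified antibodies in dilution series bound to cells for 1 h at 4 °C, detected with a fluorescent secondary antibody (1 h, 4 °C, dark), read by flow cytometry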
T3 construct: whole, on cells
T3 sequence (P05362 28-532): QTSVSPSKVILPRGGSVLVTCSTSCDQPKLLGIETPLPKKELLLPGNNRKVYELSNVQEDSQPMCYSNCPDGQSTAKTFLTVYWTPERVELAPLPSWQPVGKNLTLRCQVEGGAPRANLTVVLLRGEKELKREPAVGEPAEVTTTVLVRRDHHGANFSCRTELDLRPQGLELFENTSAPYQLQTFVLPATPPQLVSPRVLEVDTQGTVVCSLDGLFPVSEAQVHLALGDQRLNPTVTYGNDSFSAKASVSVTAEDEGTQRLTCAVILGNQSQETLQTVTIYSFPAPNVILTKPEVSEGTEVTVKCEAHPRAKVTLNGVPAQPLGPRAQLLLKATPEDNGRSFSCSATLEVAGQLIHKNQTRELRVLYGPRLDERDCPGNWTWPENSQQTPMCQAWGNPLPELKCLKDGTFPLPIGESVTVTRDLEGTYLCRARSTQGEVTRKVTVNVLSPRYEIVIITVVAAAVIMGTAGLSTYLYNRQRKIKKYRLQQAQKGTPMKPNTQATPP
Protocol: as §1

EC50 [nM]	Max Binding MFI [MFI]	Binder
0.26	5010	B9

target: T4, recombinant human CD38 (human, UniProt P28907 43-300, limits assumed); test: SPR (Biacore 8K), antibody captured, antigen injected;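 also: antibodies held on a CM5 chip through anti-human IgG Fc, antigen in 3-fold serial dilutions, 1 min association then 10 min dissociation at 25 °C, 1:1 Langmuir global fit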
Protocol: (§2) The binding kinetics of the anti-CD38 and anti-ICAM1 antibodies were evaluated on a Biacore 8K instrument (GE Healthcare). Biacore Series S CM5 sensor chips were immobilized with monoclonal mouse anti-human IgG (Fc) antibody (human antibody capture kit from GE Healthcare). Antibodies were captured on each flow cell. Serial 3-fold dilutions of each antigen were injected at a flow rate of 30 μl/min. Each sample was analyzed with 1 min association and 10 min dissociation at room temperature (25° C.). After each injection, the chip was regenerated using 3M MgCl₂. A 1:1 Langmuir model of simultaneous fitting of kₒₙ and koff was used for kinetics analysis.

Kd [nM]	koff [s⁻¹]	kon [M⁻¹ s⁻¹]	Binder
0.03	3.48e-05	1.15e+06	B1
0.67	0.000125	187000	B2
0.31	0.000117	376000	B3
0.15	0.000142	923000	B4
0.01	2.24e-05	1.84e+06	B5
7.56	0.00378	500000	B6
0.07	2.59e-05	380000	B7
0.27	8.13e-05	303000	B8

target: T5, cynomolgus CD38 ECD (cynomolgus, UniProt Q5VAN0 44-301, biotinylated on the AviTag during preparation); test: as above
T5 construct: also called Cyno-CD38; Avi-Cyno CD38 ECD
Protocol: as §2

Kd [nM]	koff [s⁻¹]	kon [M⁻¹ s⁻¹]	Binder
0.15	0.000187	1.23e+06	B1
0.55	0.000294	536000	B2
0.28	0.00029	1.02e+06	B3
0.06	0.000166	2.64e+06	B4
0.18	0.000185	1.04e+06	B5
2.32	0.00382	1.65e+06	B6
0.14	0.000175	1.23e+06	B7
0.42	0.000236	563000	B8

target: T6, recombinant human ICAM1 (human, UniProt P05362 28-480, limits assumed); test: as above
T6 sequence (P05362 28-480 limits assumed): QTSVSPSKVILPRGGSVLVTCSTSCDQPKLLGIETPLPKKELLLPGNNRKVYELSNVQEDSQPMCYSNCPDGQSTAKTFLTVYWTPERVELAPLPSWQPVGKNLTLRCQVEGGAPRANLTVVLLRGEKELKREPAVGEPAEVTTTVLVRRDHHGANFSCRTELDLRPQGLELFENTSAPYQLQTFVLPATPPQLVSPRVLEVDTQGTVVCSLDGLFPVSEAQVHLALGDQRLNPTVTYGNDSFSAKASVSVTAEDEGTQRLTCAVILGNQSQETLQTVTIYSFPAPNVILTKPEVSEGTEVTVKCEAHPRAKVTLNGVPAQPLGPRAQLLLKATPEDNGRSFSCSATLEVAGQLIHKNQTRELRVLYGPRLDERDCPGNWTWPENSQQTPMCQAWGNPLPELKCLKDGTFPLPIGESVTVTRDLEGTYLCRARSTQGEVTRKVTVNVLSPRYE
Protocol: as §2

Kd [nM]	koff [s⁻¹]	kon [M⁻¹ s⁻¹]	Binder
12.2	0.00331	272000	B9

target: T1, Rhesus-ICAM1; test: as above
Protocol: as §2

Kd [nM]	koff [s⁻¹]	kon [M⁻¹ s⁻¹]	Binder
17.7	0.0224	1.27e+06	B9

target: T6, recombinant human ICAM1; test: SPR (Biacore T200), antigen immobilised, antibody injected
Protocol: The binding kinetics of the bispecific anti-CD38/anti-ICAM1 antibodies were evaluated using Biacore T200 (GE Healthcare). The recombinant CD38 or ICAM1 were immobilized at low density on Biacore Series S CM5 sensor chips using the amine coupling kit (GE Healthcare). Serial 3-fold dilutions of each antibody were injected at a flow rate of 30 ul/min. Each sample was analyzed with 3m association and 15 min dissociation at room temperature (25° C.). After each injection, the chip was regenerated using 10 mM Glycine pH1.5. A 1:1 Langmuir model of simultaneous fitting of kₒₙ and koff was used for kinetics analysis.

Kd [nM]	koff [s⁻¹]	kon [M⁻¹ s⁻¹]	Binder
3.2	0.000763	242000	B9

target: T4, recombinant human CD38; test: ELISA: plate coated with 1 ug/ml recombinant human CD38 ECD, serially diluted antibody, OD450
Protocol: (§3) The plate was coated overnight at 4° C. with 1 μg/ml recombinant CD38 or ICAM1. After washing 3 times, the plate was blocked with 300 μl 1% BSA in PBST at 37° C. for 1 hour. Serially diluted antibodies were added and incubated at 37° C. for 1 hour. The plate was then washed 4 times with PBST and incubated with 1:5000 diluted 2nd antibody (Sigma, Cat #A0293) at 37° C. for 1 hour.

EC50 (read off the curve) [nM]	Binder
~0.06	B1
~0.06	B2
~0.06	B3
~0.06	B4
~0.06	B5
~0.06	B6
~0.06	B7
~0.06	B8

target: T6, recombinant human ICAM1; test: ELISA: plate coated with 1 ug/ml recombinant human ICAM1 ECD, serially diluted antibody, OD450
Protocol: as §3

EC50 (read off the curve) [nM]	Binder
~0.04	B9

target: T1, Rhesus-ICAM1; test: ELISA: plate coated with 1 ug/ml recombinant rhesus ICAM1 ECD, serially diluted antibody, OD450
Protocol: as §3

EC50 (read off the curve) [nM]	Binder
~0.04	B9

target: T5, cynomolgus CD38 ECD; test: ELISA: plate coated with 1 ug/ml recombinant cynomolgus CD38 ECD, serially diluted antibody, OD450
Protocol: as §3

EC50 (read off the curve) [nM]	Binder
~0.06	B1
~0.06	B2
~0.06	B3
~0.06	B4
~0.06	B5
~0.06	B6
~0.06	B7
~0.06	B8
